According to paper PMC4122979 (Bioscience Reports, 2014):

Molecular target: Human CaM (calmodulin) (human, UniProt P0DP23 1-149)
Test: cell-based or functional assay

TRKKTFKEVANAVKISASLM [Unmodified CBD peptide, T495 (heNOS CaM-binding domain, residues 491-510)]
inhibition of eNOS L-citrulline formation (100 nM eNOS, 0.5 uM CaM) by 10 uM peptide: 87%

TRKKAFKEVANAVKISASLM [Phospho-null CBD peptide, A495 (heNOS residues 491-510)]
inhibition of eNOS L-citrulline formation (100 nM eNOS, 0.5 uM CaM) by 10 uM peptide: 70%

TRKKDFKEVANAVKISASLM [Phosphomimetic CBD peptide, D495 (heNOS residues 491-510)]
inhibition of eNOS L-citrulline formation (100 nM eNOS, 0.5 uM CaM) by 10 uM peptide: 20%
